{
  "source": "patent US20230024461A1",
  "about": "“METHODS FOR DUAL DNA/PROTEIN TAGGING OF OPEN CHROMATIN” (Beth Israel Deaconess Medical Center, Inc., priority 2019, published 2023)",
  "molecules": {"B1": {"name": "TP3: Tn5 transposase-AEAAAKEAAAKA linker-APEX2 peroxidase fusion, C-terminal FLAG; amino acid SEQ ID NO: 27 (protein)", "chain": "MITSALHRAADWAKSVFSSAALGDPRRTARLVNVAAQLAKYSGKSITISSEGSKAMQEGAYRFIRNPNVSAEAIRKAGAMQTVKLAQEFPELLAIEDTTSLSYRHQVAEELGKLGSIQDKSRGWWVHSVLLLEATTFRTVGLLHQEWWMRPDDPADADEKESGKWLAAAATSRLRMGSMMSNVIAVCDREADIHAYLQDKLAHNERFVVRSKHPRKDVESGLYLYDHLKNQPELGGYQISIPQKGVVDKRGKRKNRPARKASLSLRSGRITLKQGNITLNAVLAEEINPPKGETPLKWLLLTSEPVESLAQALRVIDIYTHRWRIEEFHKAWKTGAGAERQRMEEPDNLERMVSILSFVAVRLLQLRESFTPPQALRAQGLLKEAEHVESQSAETVLTPDECQLLGYLDKGKRKRKEKAGSLQWAYMAIARLGGFMDSKRTGIASWGALWEGWEALQSKLDGFLAAKDLMAQGIKIAEAAAKEAAAKAGKSYPTVSADYQDAVEKAKKKLRGFIAEKRCAPLMLRLAFHSAGTFDKGTKTGGPFGTIKHPAELAHSANNGLDIAVRLLEPLKAEFPILSYADFYQLAGVVAVEVTGGPKVPFHPGREDKPEPPPEGRLPDPTKGSDHLRDVFGKAMGLTDQDIVALSGGHTIGAAHKERSGFEGPWTSNPLIFDNSYFTELLSGEKEGLLQLPSDKALLSDPVFRPLVDKYAADEDAFFADYAEAHQKLSELGFADADYKDDDDK", "modifications": "C-terminal FLAG"}},
  "type_in_all_cases": "biochemical, human",
  "key": {"GM12878 nuclei": {"test_system": "GM12878 nuclei", "test": "Peroxidase-mediated biotin labeling after transposition, western blot", "experimental": "Western blot. Whole cell lysate was generated by resuspending cells washed with 1×PBS in RIPA (Boston BioProducts) supplemented with 1× complete EDTA-free protease inhibitor cocktail (Roche). Cells were subject to sonication via a Sonic Dismembrator 100 (Fisher Scientific) at setting 2, with 3 pulses of 15 seconds on/off on ice. Lysates were clarified by centrifugation (15,000×g, 30 minutes, 4° C.) and their concentrations quantified with detergent-compatible Bradford assay (Thermo Fisher Scientific). All Western blots were run on NuPAGE 4-12% Bis-Tris protein gels (Thermo Fisher Scientific) and transferred to […] nitrocellulose membranes (GE Healthcare). Membranes were stained with Ponceau S, blocked with 3% milk in PBS-T, and incubated overnight with primary antibody and subsequently with secondary antibody after brief washing with PBS-T. Chemiluminescence was determined by applying ECL Western Blotting detection reagent (GE Healthcare) to membranes and imaging on an Amersham Imager 600 (GE Healthcare). Membranes were stripped with Restore PLUS Stripping Buffer (Thermo Fisher Scientific); streptavidin-HRP was inactivated with 15% hydrogen peroxide. […]"}, "K562 nuclei": {"test_system": "K562 nuclei", "test": "iDAPT protein labeling, western blot of labeled nuclear lysates", "experimental": "(§1) DNA and protein tagging by iDAPT. All iDAPT proteomic labeling assays were performed as described below unless indicated otherwise. 2.5 μmol MEDS-A/B, 2 μmol enzyme, and 1 μmol hemin chloride per channel were incubated at room temperature for 1 hour. 1e7 cells per sample were washed (500×g, 5 minutes, 4° C.), lysed and triturated in 100 μL LB1 (10 mM Tris-HCl pH 7.5, 10 mM NaCl, 3 mM MgCl2, 1% BSA, 0.01% digitonin, 0.1% Tween-20, 0.1% NP-40, and 1× cOmplete EDTA-free protease inhibitor cocktail [Roche]) for 3 minutes, and subsequently supplemented with an additional 1 mL of LB2 (10 mM Tris-HCl pH 7.5, 10 mM NaCl, 3 mM MgCl2, 1% BSA, 0.1% Tween-20, and 1× protease inhibitor). Nuclei were pelleted (500×g, 10 minutes, 4° C.), resuspended with tagmentation reaction mixture (20% dimethylformamide, 10 mM MgCl2, 20 mM Tris-HCl pH 7.5, 33% 1×PBS, 1% BSA, 0.01% digitonin, 0.1% Tween-20, 500 μM biotin-phenol, 1× protease inhibitor, and 2 pmol enzyme equivalent of enzyme:DNA:heme complex in a total volume of 500 μL), and incubated at 37° C. for 30 minutes with agitation on a thermomixer (1,000 rpm). 5 μL of tagmentation mix was saved for quality assessment as described above for ATAC-seq/iDAPT-seq sample preparation. The remaining nuclear suspension was then washed 2× with 1×PBS supplemented with 500 μM biotin-phenol, 1% BSA, 0.1% Tween-20, and 1× protease inhibitor (3000×g, 5 minutes, 4° C.) and labeled with 1 mM hydrogen peroxide and 500 μM biotin-phenol for 1 minute in 1×PBS with 1× protease inhibitor in a volume of 500 μL. Peroxidation reactions were quenched with 500 μL 2× quenching buffer (10 mM Trolox, 20 mM sodium ascorbate, 20 mM NaN3, and 1× protease inhibitor in 1×PBS). Labeled nuclei were then pelleted, washed with 1× quenching buffer, resuspended in 500 μL RIPA containing protease inhibitors, and frozen at −80° C. Lysates were thawed on ice, sonicated via a Sonic Dismembrator 100 (Fisher Scientific, setting 3, 15 seconds, 4 pulses), and incubated on ice for 30 minutes after the addition of 1 μL benzonase (EMD Millipore). Lysates were clarified by centrifugation (15,000×g, 20 minutes, 4° C.), quantified via the detergent-compatible Bradford assay (Thermo Fisher Scientific), and subjected to either Western blotting or quantitative mass spectrometry analyses as described below. For NB4 cell analysis, an additional endogenous peroxidase blocking step was added after nuclear extraction and before tagmentation: nuclei were resuspended in 500 μL 1×PBS containing 1% BSA, 0.03% hydrogen peroxide, and 0.1% NaN3 and incubated on ice for 30 minutes. Nuclei were pelleted and washed 4× with 1×PBS/1% BSA (3000×g, 5 minutes, 4° C.). Residual hydrogen peroxide was monitored by colorimetric assessment of supernatant via Quantofix peroxides test stick (Sigma).\n(§2) Western blotting analysis. Whole cell or nuclear lysates were generated by resuspending cells or nuclei in RIPA (Boston BioProducts) supplemented with 1× cOmplete EDTA-free protease inhibitor cocktail (Roche). […] Lysates were clarified by centrifugation (15,000×g, 20 minutes, 4° C.) and their concentrations quantified via the detergent-compatible Bradford assay (Thermo Fisher Scientific). […] Membranes were blocked with 3% milk in PBS-T and incubated overnight with primary antibody and subsequently with secondary antibody after brief washing with PBS-T. Chemiluminescence was determined by applying ECL Western Blotting detection reagent (GE Healthcare) to membranes and imaging on an Amersham Imager 600 (GE Healthcare). […]"}, "HEK293T nuclei": {"test_system": "HEK293T nuclei", "test": "iDAPT protein labeling, western blot of labeled nuclear lysates", "settings": "extracted HEK293T nuclei", "experimental": "as §1, §2"}},
  "data": [
    {"molecule": "B1", "values": [
      {"measurement": "biotinylation signal (streptavidin)", "setting": "GM12878 nuclei", "value": "highest signals"},
      {"measurement": "biotin labeling", "setting": "K562 nuclei", "value": "highest levels of labeling"},
      {"measurement": "peroxidase-dependent biotin signal", "setting": "HEK293T nuclei", "value": "strong peroxidase-dependent biotin signal"}
    ]}
  ]
}
